Target: RHT1‐GRAS (truncated DELLA protein containing only the C‐terminal GRAS domain) (wheat (Triticum turgidum ssp. durum, cultivar Kronos))
Assay: two-hybrid; yeast-three-hybrid (Y3H), quantitative alpha-galactosidase activity; DELLA-GRAS as AD, SPL3 or SPL4 as BD, VRN1 or FUL2 expressed as third protein; Method S10

Substance | percent decrease of the DELLA-SPL3 interaction (m1 with m2) when expressed as third protein [%] | percent decrease of the DELLA-SPL4 interaction (m1 with m3) when expressed as third protein [%]
VRN1 expressed as the third protein in the yeast‐three‐hybrid system (natural protein) | 48 | 36
FUL2 expressed as the third protein in the yeast‐three‐hybrid system (natural protein) | 60 | 55
